Experimental data: US20240182596A1 (TUBULIS, published 2024)

How the values were obtained:
FcγRIIIa (CD16) (V158) = target: T1, FcγRIIIa (CD16) (V158) (Homo sapiens, UniProt P08637); test: Lumit FcγRIIIa (V158) Binding Immunoassay (Promega), left panel FcγRIIIa (CD16) (V158), competition with Tracer-LgBiT for FcγR-SmBiT, falling luminescence means binding, n=1
T1 construct: m21 joins both polymorphic variants; also called V158 variant of m21

[1] = target: T2, human Napi2c-mCherry on HEK293 cells (human, UniProt Q8N130 1-599); test: flow cytometry on HEK293 cells expressing human Napi2c-mCherry (panel Napi2c-HEK293), MFI ratio to the non-specific binding control
T2 construct: whole, on cells; also called Napi2c (SLC34A3); not shown: mCherry fusion
T2 sequence (looked up): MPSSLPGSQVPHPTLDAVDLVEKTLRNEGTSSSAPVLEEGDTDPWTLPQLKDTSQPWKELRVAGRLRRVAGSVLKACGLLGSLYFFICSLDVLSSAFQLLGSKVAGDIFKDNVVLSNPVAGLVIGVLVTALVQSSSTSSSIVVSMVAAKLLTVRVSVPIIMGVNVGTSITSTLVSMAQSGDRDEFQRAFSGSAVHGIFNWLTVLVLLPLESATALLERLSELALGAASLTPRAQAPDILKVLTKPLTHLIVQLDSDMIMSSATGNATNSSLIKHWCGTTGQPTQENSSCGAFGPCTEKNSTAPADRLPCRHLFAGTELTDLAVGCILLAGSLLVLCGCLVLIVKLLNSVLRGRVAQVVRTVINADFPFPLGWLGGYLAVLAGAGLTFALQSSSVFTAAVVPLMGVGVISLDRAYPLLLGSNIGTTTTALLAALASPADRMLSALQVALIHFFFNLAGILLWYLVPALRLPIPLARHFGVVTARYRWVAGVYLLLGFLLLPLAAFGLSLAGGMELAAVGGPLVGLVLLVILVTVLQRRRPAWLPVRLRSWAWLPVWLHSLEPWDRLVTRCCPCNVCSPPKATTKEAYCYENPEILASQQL

[2] = target: T3, human NaPi2b on NaPi2b-positive cell lines OVCAR-3 and HCC-78 (human, UniProt O95436 1-690); test: cell-based or functional assay
T3 sequence: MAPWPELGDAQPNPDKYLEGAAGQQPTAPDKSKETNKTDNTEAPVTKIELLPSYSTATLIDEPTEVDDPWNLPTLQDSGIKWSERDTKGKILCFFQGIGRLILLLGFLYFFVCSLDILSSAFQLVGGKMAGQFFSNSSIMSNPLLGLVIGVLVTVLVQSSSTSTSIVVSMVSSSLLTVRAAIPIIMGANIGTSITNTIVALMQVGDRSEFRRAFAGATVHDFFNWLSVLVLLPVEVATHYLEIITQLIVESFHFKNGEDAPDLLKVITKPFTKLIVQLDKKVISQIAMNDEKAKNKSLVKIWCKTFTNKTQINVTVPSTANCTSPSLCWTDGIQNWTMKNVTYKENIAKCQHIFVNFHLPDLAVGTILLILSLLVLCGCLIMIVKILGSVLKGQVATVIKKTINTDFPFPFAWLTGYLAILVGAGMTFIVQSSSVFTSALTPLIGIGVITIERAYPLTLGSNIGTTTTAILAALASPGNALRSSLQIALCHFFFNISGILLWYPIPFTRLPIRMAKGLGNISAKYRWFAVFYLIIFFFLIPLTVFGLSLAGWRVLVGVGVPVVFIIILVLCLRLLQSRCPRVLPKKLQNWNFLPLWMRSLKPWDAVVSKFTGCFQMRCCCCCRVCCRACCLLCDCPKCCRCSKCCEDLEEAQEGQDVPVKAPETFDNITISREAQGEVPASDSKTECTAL

FcγRIIIa (CD16) (F158) = target: T4, FcγRIIIa (CD16) (F158) (Homo sapiens, UniProt P08637); test: Lumit FcγRIIIa (F158) Binding Immunoassay (Promega), right panel FcγRIIIa (CD16) (F158), competition with Tracer-LgBiT for FcγR-SmBiT, falling luminescence means binding, n=1
T4 construct: m21 joins both polymorphic variants; also called F158 variant of m21

[3] = target: T5, human Napi2a-mCherry on HEK293 cells (human, UniProt Q06495 1-639); test: flow cytometry on HEK293 cells expressing human Napi2a-mCherry (panel Napi2a-HEK293), MFI ratio to the non-specific binding control
T5 construct: whole, on cells; also called Napi2a (SLC34A1); not shown: mCherry fusion
T5 sequence (looked up): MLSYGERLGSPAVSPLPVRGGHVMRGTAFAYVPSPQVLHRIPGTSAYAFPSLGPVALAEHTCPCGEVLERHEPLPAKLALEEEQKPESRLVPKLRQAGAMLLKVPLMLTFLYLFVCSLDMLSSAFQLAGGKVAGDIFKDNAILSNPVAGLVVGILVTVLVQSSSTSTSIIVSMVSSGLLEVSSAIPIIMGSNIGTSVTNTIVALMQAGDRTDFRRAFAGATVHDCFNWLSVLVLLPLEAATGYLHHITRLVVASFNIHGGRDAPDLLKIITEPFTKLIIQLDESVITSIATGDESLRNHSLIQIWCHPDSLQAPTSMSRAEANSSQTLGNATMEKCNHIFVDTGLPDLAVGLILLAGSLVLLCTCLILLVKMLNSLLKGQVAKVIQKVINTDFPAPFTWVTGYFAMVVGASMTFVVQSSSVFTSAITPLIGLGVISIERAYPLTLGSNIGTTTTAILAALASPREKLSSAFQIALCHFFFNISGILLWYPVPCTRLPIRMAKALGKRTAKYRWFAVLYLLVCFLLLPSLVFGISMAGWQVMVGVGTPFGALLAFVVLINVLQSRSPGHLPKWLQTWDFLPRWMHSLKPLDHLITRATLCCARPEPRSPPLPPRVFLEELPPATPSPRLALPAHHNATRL

[4] = target: T6, recombinant human FcγRI (FcγR-SmBiT, Lumit assay) (human, UniProt P12314 16-292); test: Lumit FcγRI Binding Immunoassay (Promega), competition with Tracer-LgBiT for FcγRI-SmBiT, falling luminescence means binding, n=1
T6 construct: Kit reagent (Promega); also called FcγRI (CD64); not shown: SmBiT label of the kit

FcγRIIa (CD32) (H131) = target: T7, FcγRIIa (CD32) (H131) (Fused to the SmBiT luciferase fragment (Promega Lumit reagent), not carried in the letters); test: Lumit FcγRIIa (H131) Binding Immunoassay (Promega), left panel FcγRIIa (CD32) (H131), competition with Tracer-LgBiT for FcγR-SmBiT, n=1
T7 construct: m20 joins both polymorphic variants; also called H131 variant of m20; not shown: SmBiT tag (and any linker or purification tag) of Promega's FcγR-SmBiT fusion
T7 chain: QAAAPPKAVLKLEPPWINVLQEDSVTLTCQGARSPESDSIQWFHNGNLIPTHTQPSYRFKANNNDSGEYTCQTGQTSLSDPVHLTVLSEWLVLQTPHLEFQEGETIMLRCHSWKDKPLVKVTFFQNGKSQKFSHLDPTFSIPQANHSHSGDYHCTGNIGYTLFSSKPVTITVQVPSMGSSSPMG

[5] = target: T8, human Napi2b-mCherry on HEK293 cells (human, UniProt O95436 1-690); test: flow cytometry on HEK293 cells expressing human Napi2b-mCherry (panel Napi2b-HEK293), Alexa-dye anti-human IgG H+L secondary antibody, MFI ratio to the non-specific binding control
T8 construct: also called Napi2b (SLC34A2); HEK293 cells overexpressing Napi2b
T8 sequence: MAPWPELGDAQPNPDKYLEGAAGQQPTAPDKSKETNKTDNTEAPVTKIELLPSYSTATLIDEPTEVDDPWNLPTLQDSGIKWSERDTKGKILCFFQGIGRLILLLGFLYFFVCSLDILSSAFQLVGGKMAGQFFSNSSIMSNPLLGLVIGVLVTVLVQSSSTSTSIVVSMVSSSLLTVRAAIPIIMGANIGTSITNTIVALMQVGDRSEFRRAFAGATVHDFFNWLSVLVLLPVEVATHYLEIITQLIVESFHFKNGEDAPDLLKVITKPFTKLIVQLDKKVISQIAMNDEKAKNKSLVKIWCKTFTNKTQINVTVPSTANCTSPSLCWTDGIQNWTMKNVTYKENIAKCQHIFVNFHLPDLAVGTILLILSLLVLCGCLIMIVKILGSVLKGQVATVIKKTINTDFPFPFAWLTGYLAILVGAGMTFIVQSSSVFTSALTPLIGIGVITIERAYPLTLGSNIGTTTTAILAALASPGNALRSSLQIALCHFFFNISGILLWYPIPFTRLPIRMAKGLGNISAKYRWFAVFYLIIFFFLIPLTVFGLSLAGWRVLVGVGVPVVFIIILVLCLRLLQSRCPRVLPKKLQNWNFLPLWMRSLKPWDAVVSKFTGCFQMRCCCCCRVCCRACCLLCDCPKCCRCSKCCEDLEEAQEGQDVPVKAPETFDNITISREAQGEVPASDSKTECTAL

T4 sequence (P08637 17-208 limits assumed): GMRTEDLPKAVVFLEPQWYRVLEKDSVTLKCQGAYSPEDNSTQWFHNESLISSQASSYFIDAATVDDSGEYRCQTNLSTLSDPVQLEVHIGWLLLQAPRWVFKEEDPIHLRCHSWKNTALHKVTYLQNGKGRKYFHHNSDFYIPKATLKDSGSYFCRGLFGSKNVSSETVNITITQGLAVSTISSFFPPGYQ
T1 sequence (P08637 17-208 F176V limits assumed): as the sequence (P08637 17-208 limits assumed) above, with F160V counted along it
T6 sequence (P12314 16-292): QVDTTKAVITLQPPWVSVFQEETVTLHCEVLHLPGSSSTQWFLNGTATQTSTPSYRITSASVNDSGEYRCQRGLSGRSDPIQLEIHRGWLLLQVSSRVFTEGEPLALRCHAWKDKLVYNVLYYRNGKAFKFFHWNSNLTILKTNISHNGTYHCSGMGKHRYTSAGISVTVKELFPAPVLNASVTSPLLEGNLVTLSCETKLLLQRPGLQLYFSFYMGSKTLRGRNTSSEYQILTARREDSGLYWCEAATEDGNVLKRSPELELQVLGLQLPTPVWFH

B1: AV25-P5(PEG24)-VC-PAB-Exatecan DAR8 ADC (antibody, human IgG1, kappa, L234A L235A)
heavy: not shown
light: DIQMTQSPSSLSASVGDRVTITCSASQDIGNFLNWYQQKPGKTVKVLIYYASSLYSGVPSRFSGSGSGTDYTLTISSLQPEDFATYYCQQYSKLPLTFGQGTKLELKRTVAAPSVFIFPPSDEQLKSGTASVVCLLNNFYPREAKVQWKVDNALQSGNSQESVTEQDSKDSTYSLSSTLTLSKADYEKHKVYACEVTHQGLSSPVTKSFNRGEC
modifications: P5(PEG24)-VC-PAB-Exatecan linker-payload on the interchain cysteine (1 per light chain, DAR8); P5(PEG24)-VC-PAB-Exatecan linker-payload on interchain cysteines (up to 3 per heavy chain, DAR8)
notes: also called TUB-040
For B1, the binding result (FcγRIIIa (CD16) (V158)) was “binds”, the binding result [1] was “no binding (tested: 200 nM)” and the “IC50 of cytotoxicity (resazurin assay, 7 days) on HCC-78, against the anti-Napi2b comparison ADC” value [2] was 15.5 fold lower IC50. B1: binds (FcγRIIIa (CD16) (F158)); no binding (tested: 200 nM) [3]; binds [4]. The binding result (FcγRIIa (CD32) (H131)) was “no binding” and the “EC50 (read off the curve)” value [5] was about 0.9 nM.
